Measured values: patent publication US20190161551A1 (Regeneron, published 2019)

What was measured:
[1] = biological target: T1, rat TrkB extracellular domain expressed with a C-terminal myc-myc-hexahistidine tag (rat, UniProt Q63604 32-429); experiment: SPR, mAb captured (anti-mFc), 25C
T1 construct: also called rTrkB.mmH; rTRKB.mmH
Method: (§1) Equilibrium dissociation constants (KD values) for TrkB binding to purified anti-TrkB monoclonal antibodies were determined using a real-time surface plasmon resonance biosensor using a Biacore 4000 instrument. All binding studies were performed in 10 mM Hepes pH 7.4, 150 mM NaCl, 3 mM EDTA, and 0.05% v/v Surfactant Tween-20 (HBS-ET running buffer) at 25° C. and 37° C. […] Binding studies were performed on following TrkB reagents; human TrkB extracellular domain expressed with a C-terminal myc-myc-hexahistidine tag (hTRKB.mmH; SEQ ID NO: 76; Accession number NP_001018074.1), mouse TrkB extracellular domain expressed with a C-terminal myc-myc-hexahistidine tag (mTRKB.mmH; SEQ ID NO: 79; Accession number NP_001020245), rat TrkB extracellular domain expressed with a C-terminal myc-myc-hexahistidine tag (rTRKB.mmH; SEQ ID NO: 84; Accession number NP_036863.1), and human TrkB extracellular domain expressed with a C-terminal mouse IgG2a Fc tag (hTrkB-mFc; SEQ ID NO: 77; Accession number NP_001018074.1). […] Kinetic association (kₐ) and dissociation (kd) rate constants were determined by fitting the real-time binding sensorgrams to a 1:1 binding model with mass transport limitation using Scrubber 2.0c curve-fitting software. Binding dissociation equilibrium constants (KD) and dissociative half-lives (t½) were calculated from the kinetic rate constants as: […]

[2] = biological target: T2, human TrkB extracellular domain expressed with a C-terminal myc-myc-hexahistidine tag (human, UniProt Q16620 32-430); experiment: SPR, mAb captured (anti-mFc), 25C
T2 construct: also called hTrkB.mmH; hTRKB.mmH
T2 sequence (Q16620 other isoform, or with tags, fused parts or gaps): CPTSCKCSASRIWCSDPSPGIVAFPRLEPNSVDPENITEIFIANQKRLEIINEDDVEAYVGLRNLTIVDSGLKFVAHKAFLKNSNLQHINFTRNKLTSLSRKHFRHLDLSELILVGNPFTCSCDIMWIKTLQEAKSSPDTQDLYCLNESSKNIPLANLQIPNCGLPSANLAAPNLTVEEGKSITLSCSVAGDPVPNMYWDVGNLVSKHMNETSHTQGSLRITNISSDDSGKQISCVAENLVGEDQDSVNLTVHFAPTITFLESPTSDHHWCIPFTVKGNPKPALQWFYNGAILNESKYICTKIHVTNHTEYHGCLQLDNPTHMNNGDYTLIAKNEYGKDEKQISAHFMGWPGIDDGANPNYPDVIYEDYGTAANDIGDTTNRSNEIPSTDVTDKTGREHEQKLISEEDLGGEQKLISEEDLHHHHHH
Method: as §1

[3] = biological target: T3, mouse TrkB extracellular domain expressed with a C-terminal myc-myc-hexahistidine tag (mouse, UniProt P15209 32-429); experiment: SPR, mAb captured (anti-mFc), 25C
T3 construct: also called mTrkB.mmH; mTRKB.mmH
T3 sequence (P15209 other isoform, or with tags, fused parts or gaps): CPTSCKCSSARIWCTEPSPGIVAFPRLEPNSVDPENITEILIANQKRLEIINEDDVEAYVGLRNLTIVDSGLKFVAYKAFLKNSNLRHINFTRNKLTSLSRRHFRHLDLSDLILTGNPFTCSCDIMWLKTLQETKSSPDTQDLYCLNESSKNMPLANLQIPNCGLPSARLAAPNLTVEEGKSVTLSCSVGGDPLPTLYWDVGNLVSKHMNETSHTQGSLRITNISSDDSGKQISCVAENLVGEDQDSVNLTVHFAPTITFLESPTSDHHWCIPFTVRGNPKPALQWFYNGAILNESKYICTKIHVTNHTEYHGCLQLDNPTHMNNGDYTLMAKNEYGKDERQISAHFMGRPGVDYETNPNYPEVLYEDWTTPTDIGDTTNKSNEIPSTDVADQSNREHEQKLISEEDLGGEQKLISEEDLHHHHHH
Method: as §1

[4] = biological target: T4, human TrkB extracellular domain expressed with a C-terminal mouse IgG2a Fc tag (human); experiment: SPR, mAb captured (anti-mFc), 25C
T4 construct: also called hTrkB-mFc; hTrkB.mFc
T4 sequence (chain, as listed by the source limits assumed): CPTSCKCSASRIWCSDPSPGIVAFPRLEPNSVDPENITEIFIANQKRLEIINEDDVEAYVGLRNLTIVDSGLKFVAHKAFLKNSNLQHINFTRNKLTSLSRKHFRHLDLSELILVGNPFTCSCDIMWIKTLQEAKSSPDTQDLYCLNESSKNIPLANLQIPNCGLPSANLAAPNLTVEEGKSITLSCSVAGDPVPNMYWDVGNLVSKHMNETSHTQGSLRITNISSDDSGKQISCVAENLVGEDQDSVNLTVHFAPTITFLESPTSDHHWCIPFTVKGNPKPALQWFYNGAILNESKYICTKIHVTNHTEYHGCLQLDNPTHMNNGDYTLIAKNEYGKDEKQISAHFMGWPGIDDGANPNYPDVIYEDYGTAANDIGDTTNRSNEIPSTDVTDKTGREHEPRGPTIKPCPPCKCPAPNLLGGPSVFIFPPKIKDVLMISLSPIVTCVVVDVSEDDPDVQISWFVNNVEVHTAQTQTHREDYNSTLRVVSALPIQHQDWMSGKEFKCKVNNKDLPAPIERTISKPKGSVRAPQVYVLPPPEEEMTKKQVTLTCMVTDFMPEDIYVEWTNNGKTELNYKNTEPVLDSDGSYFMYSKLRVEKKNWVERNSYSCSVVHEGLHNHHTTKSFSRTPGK
Method: as §1

[5] = biological target: T5, mouse TrkB.hFc (mouse); experiment: blocking ELISA: constant mouse TrkB.hFc (REGN2277) pre-mixed with antibody, binding to plate-coated BDNF
T5 construct: also called mTrkB.hFc; mTrkB-hFc
T5 sequence (chain, as listed by the source limits assumed): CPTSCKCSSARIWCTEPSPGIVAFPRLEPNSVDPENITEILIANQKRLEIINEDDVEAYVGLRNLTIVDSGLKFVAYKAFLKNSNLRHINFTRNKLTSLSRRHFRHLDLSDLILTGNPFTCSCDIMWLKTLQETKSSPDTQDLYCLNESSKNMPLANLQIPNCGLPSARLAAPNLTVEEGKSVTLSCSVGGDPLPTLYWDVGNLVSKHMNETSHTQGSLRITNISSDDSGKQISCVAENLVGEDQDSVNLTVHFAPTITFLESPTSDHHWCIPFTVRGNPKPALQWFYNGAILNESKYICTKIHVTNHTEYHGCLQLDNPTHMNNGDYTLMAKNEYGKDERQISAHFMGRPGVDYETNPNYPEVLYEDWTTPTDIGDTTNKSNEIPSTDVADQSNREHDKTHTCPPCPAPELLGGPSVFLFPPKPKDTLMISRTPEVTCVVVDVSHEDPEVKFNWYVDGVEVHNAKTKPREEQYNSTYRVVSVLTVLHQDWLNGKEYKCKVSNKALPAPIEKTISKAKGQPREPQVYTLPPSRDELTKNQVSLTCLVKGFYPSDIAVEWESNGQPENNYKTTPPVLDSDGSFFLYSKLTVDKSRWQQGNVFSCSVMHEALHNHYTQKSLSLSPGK
Method: (§2) Experiments were carried out using the following procedure. Human BDNF was coated at a concentration of 0.5 μg/mL (for blocking mouse TrkB.hFc interaction) or 0.3 μg/mL (for blocking rat TrkB.mmh interaction) in PBS on 96-well microtiter plate and incubated overnight at 4° C. […] In a 96-well dilution plate, 850 pM mouse TrkB.hFc or rat TrkB.mmh was mixed with the three-fold serially diluted anti-mouse TrkB antibodies and control antibody. The final antibody concentrations ranged from 1.69 pM to 100 nM. The protein-antibody mix was incubated at room temperature (RT) for 1 hour. The pre-bound mix was then transferred in duplicates to microtiter plates coated with BDNF. […] Plate-bound mouse TrkB.hFc was detected with HRP-conjugated goat anti-human Fcγ fragment specific antibody (Jackson Immunoresearch) and rat TrkB.mmh was detected with HRP-conjugated anti-histidine antibody (Qiagen). […]
(§3) The absorbance at 450 nm for each well was recorded and plotted as a function of the concentration of antibody. Data was analyzed in GraphPad Prism software using a four-parameter logistic equation over an 11-point dose response curve and IC₅₀ values were calculated. […] Percent blockade at maximum concentration of the antibody tested was calculated as an indicator of the ability of the antibodies to block the binding of TrkB to BDNF on the plate relative to the baseline of the assay. […]

[6] = biological target: T1, rat TrkB extracellular domain expressed …; experiment: blocking ELISA: constant rat TrkB.mmh (REGN1808) pre-mixed with antibody, binding to plate-coated BDNF; half-maximal enhancement of the signal, not blockade
Method: as §2, §3

T1 sequence (Q63604 other isoform, or with tags, fused parts or gaps): as the sequence (P15209 other isoform, or with tags, fused parts or gaps) above, with T3M, S9T, A10T, V32I, R63K, S84G, M153T, L185I, S394T counted along it

B1: H1M8037C (antibody, mouse IgG1, kappa, V domains shown)
VH: QVQLVQSGAEVKKPGASVKVSCKASGYTFTNYDIIWVRQAPGQGLEWMGYINPYNDGTKYNEKFKGRVTMTRDTSTSTVYMELSSLRSEDTAVYYCARLLKYRRFRYYAIDYWGQGTTVTVSS
VL: DIQMTQSPSSLSASVGDRVTITCRTSENVYSNLAWYQQKPGKAPKLLIYAASNLQSGVPSRFSGSGSGTDYTFTISSLQPEDIATYYCQHFWGSPFTFGQGTKLEIKR
notes: captured by anti-mFc in SPR; also called Comparator; comparator anti-TrkB monoclonal antibody
[1]
  Kd: 31 nM
  koff: 0.0016 s⁻¹
  kon: 51600 M⁻¹ s⁻¹
  t½: 7 min
[2]
  Kd: 41.3 nM
  koff: 0.00192 s⁻¹
  kon: 46500 M⁻¹ s⁻¹
  t½: 6 min
[3]
  Kd: 40.8 nM
  koff: 0.00168 s⁻¹
  kon: 41200 M⁻¹ s⁻¹
  t½: 7 min
[4]
  Kd: 1.09 nM
  koff: 9.55e-05 s⁻¹
  kon: 88000 M⁻¹ s⁻¹
  t½: 121 min

B2: M2aM14173N (antibody, mouse IgG2a, kappa, V domains shown)
VH: NVSLVESGGGSVKPGGSLQLSCAASGFTFSSSAMSWIRQTPEMRLEWVATISDRGSYTYYPDSVEGRFTISRDNAKNILYLQMSHLMSEDTAMYYCARGKGEKAYYTAFFAYWGQGSLVTVSA
VL: DIQMTQSPASLSASVGETVTITCRASENIYSYLAWYQQKPGKSPHLLVHNAETLAEGVPSRFSGSGSGPQFSLKINSLQPGDSGTYYCQHHYSSPWTFGGGTKLEIKR
notes: Anti-mouse TrkB antibody from hybridoma, mouse IgG2a Fc; also called surrogate anti-mouse TrkB antibody
[5]
  IC50 (read off the curve): ~0.1 nM

B3: M2aM14179N (antibody, mouse IgG2a, kappa, V domains shown)
VH: EVQLQQSGPELVKPGASVKISCKASGYTLTDYYMNWVKQSHGKSLEWIGDINPNNGGTSYNQKFKGKATLTVDKSSSTAYMELRSLTSEDSAVYYCARGAYYSNYFDYWGQGTTLTVSS
VL: DIVMSQSPSSLAVSAGEKVTMSCKSSQSLLNSRTRKNYLAWYQQKPGQSPKLLIYWASTRESGVPDRFTGSGSGTDFTLTISSVQAEDLAVYYCKQSYILFTFGSGTQLEIKR
notes: as for B2
[6]
  EC50 (read off the curve): ~0.4 nM
